{"source": "the supplement of paper PMC10598134", "experiment": "collision cross section of modified peptide (TIMS, N2, iRT-aligned); higher = larger / more extended gas-phase ion", "in_short": "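Synthetic peptide pools (~100 fmol/µL in 2% acetonitrile/0.1% formic acid, iRT standard spiked 1:40) were separated on a 120-min nanoflow C18 gradient at 60 °C. They were analysed on a timsTOF Pro/HT (dda-PASEF, nitrogen, ~2.4 mbar) and identified with MaxQuant. 1/K0 was calibrated with three reference ions and aligned run-wise to the median iRT peptide deviation. Collision cross section came from the Mason-Schamp equation, averaging 1–3 technical replicates of the most abundant feature per charge state.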", "key": {"[1]": {"conditions": "charge state: 3, modification: Trimethyl (K)"}, "[2]": {"conditions": "charge state: 2, modification: Butyryl"}, "[3]": {"conditions": "charge state: 3, modification: Butyryl"}, "[4]": {"conditions": "charge state: 2, modification: Propionyl"}, "[5]": {"conditions": "charge state: 2, modification: Formyl"}, "[6]": {"conditions": "charge state: 2, modification: Phospho (Y)"}, "[7]": {"conditions": "charge state: 2, modification: Methyl (K)"}, "[8]": {"conditions": "charge state: 3, modification: Methyl (K)"}, "[9]": {"conditions": "charge state: 2, modification: hydroxyisobutyryl"}, "[10]": {"conditions": "charge state: 2, modification: Glutarylation"}, "[11]": {"conditions": "charge state: 2, modification: Succinyl"}, "[12]": {"conditions": "charge state: 3, modification: Glutarylation"}}, "note": "± gives the standard deviation."}
{"sequence": "LYDIDVAK [_LY(Nitro (Y))DIDVAK_]", "values": [{"measurement": "collision cross section", "setting": "charge state: 2, modification: Nitro (Y)", "result": "344.32 ± 0.56", "unit": "Å²"}]}
{"sequence": "TVSKVDDFLANEAK [_TVSK(Trimethyl (K))VDDFLANEAK_]", "values": [{"measurement": "collision cross section", "setting": "charge state: 2, modification: Trimethyl (K)", "result": "424.19 ± 1.1", "unit": "Å²"}, {"measurement": "collision cross section", "setting": "[1]", "result": "482.88 ± 1.6", "unit": "Å²"}]}
{"sequence": "VYIASSSGSTAIKK [_VYIASSSGSTAIK(Acetyl (K))K_]", "values": [{"measurement": "collision cross section", "setting": "charge state: 2, modification: Acetyl (K)", "result": "414.5 ± 2.5", "unit": "Å²"}, {"measurement": "collision cross section", "setting": "charge state: 3, modification: Acetyl (K)", "result": "503.2 ± 1.2", "unit": "Å²"}]}
{"sequence": "GTITVSAQELKDNR [_GTITVSAQELK(Butyryl)DNR_]", "values": [{"measurement": "collision cross section", "setting": "[2]", "result": "422.6 ± 0.77", "unit": "Å²"}, {"measurement": "collision cross section", "setting": "[3]", "result": "481.65 ± 2.9", "unit": "Å²"}]}
{"sequence": "VGADGTVFATR [_VGADGTVFAT(HexNAc (ST))R_]", "values": [{"measurement": "collision cross section", "setting": "charge state: 2, modification: HexNAc (ST)", "result": "366.62 ± 0.59", "unit": "Å²"}]}
{"sequence": "SNEEGSEEKGPEVR [_SNEEGSEEK(Propionyl)GPEVR_]", "values": [{"measurement": "collision cross section", "setting": "[4]", "result": "404.8 ± 1.3", "unit": "Å²"}]}
{"sequence": "ANLEKAQAELVGTADEATR [_ANLEK(Formyl)AQAELVGTADEATR_]", "values": [{"measurement": "collision cross section", "setting": "[5]", "result": "471.04 ± 1.4", "unit": "Å²"}, {"measurement": "collision cross section", "setting": "charge state: 3, modification: Formyl", "result": "566.89 ± 0.82", "unit": "Å²"}]}
{"sequence": "TYVQDILR [_TY(Phospho (Y))VQDILR_]", "values": [{"measurement": "collision cross section", "setting": "[6]", "result": "359.66 ± 0.65", "unit": "Å²"}]}
{"sequence": "YTAQVDAEEK [_Y(Phospho (Y))TAQVDAEEK_]", "values": [{"measurement": "collision cross section", "setting": "[6]", "result": "361.18 ± 0.78", "unit": "Å²"}]}
{"sequence": "GGPGSTLSFVGKR [_GGPGSTLSFVGK(Methyl (K))R_]", "values": [{"measurement": "collision cross section", "setting": "[7]", "result": "391.3 ± 0.92", "unit": "Å²"}, {"measurement": "collision cross section", "setting": "[8]", "result": "452.34 ± 5", "unit": "Å²"}]}
{"sequence": "DYSSGFGGKYGVQADR [_DYSSGFGGK(Propionyl)YGVQADR_]", "values": [{"measurement": "collision cross section", "setting": "[4]", "result": 432.72, "unit": "Å²"}]}
{"sequence": "IGNSYFKEEK [_IGNSYFK(hydroxyisobutyryl)EEK_]", "values": [{"measurement": "collision cross section", "setting": "[9]", "result": "380.01 ± 0.8", "unit": "Å²"}]}
{"sequence": "TQDQISNIKYHEEFEK [_TQDQISNIK(Crotonyl)YHEEFEK_]", "values": [{"measurement": "collision cross section", "setting": "charge state: 3, modification: Crotonyl", "result": 560.13, "unit": "Å²"}]}
{"sequence": "DYSSGFGGKYGVQADR [_DYSSGFGGK(Gluratylation)YGVQADR_]", "values": [{"measurement": "collision cross section", "setting": "[10]", "result": "441.26 ± 0.95", "unit": "Å²"}]}
{"sequence": "SLGEPAAGEGSAKR [_SLGEPAAGEGSAK(Butyryl)R_]", "values": [{"measurement": "collision cross section", "setting": "[2]", "result": "388.15 ± 2", "unit": "Å²"}, {"measurement": "collision cross section", "setting": "[3]", "result": "487.74 ± 4.3", "unit": "Å²"}]}
{"sequence": "IDLPAENSNSETIIITGKR [_IDLPAENSNSETIIITGK(Succinyl)R_]", "values": [{"measurement": "collision cross section", "setting": "[11]", "result": "492.62 ± 0.3", "unit": "Å²"}]}
{"sequence": "IISSIEQKEENK [_IISSIEQK(Gluratylation)EENK_]", "values": [{"measurement": "collision cross section", "setting": "[10]", "result": "411.03 ± 0.6", "unit": "Å²"}, {"measurement": "collision cross section", "setting": "[12]", "result": "467.18 ± 1.7", "unit": "Å²"}]}
{"sequence": "GFLQPPPLRQPR [_GFLQPPPLR(Methyl (R))QPR_]", "values": [{"measurement": "collision cross section", "setting": "charge state: 2, modification: Methyl (R)", "result": 399.75, "unit": "Å²"}, {"measurement": "collision cross section", "setting": "charge state: 3, modification: Methyl (R)", "result": "450.22 ± 3.5", "unit": "Å²"}]}
{"sequence": "GTVPDDAVEALADSLGKK [_GTVPDDAVEALADSLGK(Gluratylation)K_]", "values": [{"measurement": "collision cross section", "setting": "[10]", "result": "452.53 ± 1.2", "unit": "Å²"}, {"measurement": "collision cross section", "setting": "[12]", "result": "538.57 ± 1.8", "unit": "Å²"}]}
{"sequence": "LAEEENKAK [_LAEEENK(GlyGly (K))AK_]", "values": [{"measurement": "collision cross section", "setting": "charge state: 2, modification: GlyGly (K)", "result": "356.17 ± 0.39", "unit": "Å²"}, {"measurement": "collision cross section", "setting": "charge state: 3, modification: GlyGly (K)", "result": "428.57 ± 0.75", "unit": "Å²"}]}
{"sequence": "GRGGAESHTFK [_GR(Citrullination (R))GGAESHTFK_]", "values": [{"measurement": "collision cross section", "setting": "charge state: 2, modification: Citrullination (R)", "result": "374.44 ± 0.39", "unit": "Å²"}, {"measurement": "collision cross section", "setting": "charge state: 3, modification: Citrullination (R)", "result": "436.66 ± 2.2", "unit": "Å²"}]}
{"sequence": "GAEKTEVAEPR [_GAEK(Trimethyl (K))TEVAEPR_]", "values": [{"measurement": "collision cross section", "setting": "[1]", "result": "447.07 ± 3.3", "unit": "Å²"}]}
{"sequence": "GETASKLQSEISR [_GETASK(Formyl)LQSEISR_]", "values": [{"measurement": "collision cross section", "setting": "[5]", "result": "382.6 ± 1.7", "unit": "Å²"}]}
{"sequence": "LGVATVAKGVCGACK [_LGVATVAK(Succinyl)GVCGACK_]", "values": [{"measurement": "collision cross section", "setting": "[11]", "result": "417.57 ± 0.55", "unit": "Å²"}]}
{"sequence": "GQQGEPGPK [_GQQGEP(Hydroxyproline)GPK_]", "values": [{"measurement": "collision cross section", "setting": "charge state: 2, modification: Hydroxyproline", "result": "313.43 ± 0.56", "unit": "Å²"}]}
{"sequence": "DHLSDKESK [_DHLSDK(hydroxyisobutyryl)ESK_]", "values": [{"measurement": "collision cross section", "setting": "[9]", "result": "357.61 ± 1.9", "unit": "Å²"}, {"measurement": "collision cross section", "setting": "charge state: 3, modification: hydroxyisobutyryl", "result": "415.53 ± 4.4", "unit": "Å²"}]}
{"sequence": "IQTKAGEATVK [_IQTK(Gluratylation)AGEATVK_]", "values": [{"measurement": "collision cross section", "setting": "[10]", "result": "370.55 ± 0.62", "unit": "Å²"}]}
{"sequence": "VGEFSGANKEK [_VGEFSGANK(Methyl (K))EK_]", "values": [{"measurement": "collision cross section", "setting": "[7]", "result": "374.84 ± 0.74", "unit": "Å²"}, {"measurement": "collision cross section", "setting": "[8]", "result": "443.95 ± 6.6", "unit": "Å²"}]}
